According to patent publication US20220074937A1:

Assays:
[1] = molecular target: CD19 CAR containing FMC63 scFv, on the cell surface (CD19 CAR-T cells, CD19 CAR-293T cells); experiment: flow cytometry, CAR positive cells diluted 1:16 in negative cells; AF488-CD19sIg1-4 against SSC-A; data reproduced from De Oliveira SN, et al., J Transl Med, 2013
[2] = molecular target: CD19 CAR containing FMC63 scFv, on the cell surface (CD19 CAR-T cells, CD19 CAR-293T cells); experiment: flow cytometry, CAR positive cells diluted 1:8 in negative cells; AF488-CD19sIg1-4 against SSC-A; data reproduced from De Oliveira SN, et al., J Transl Med, 2013
[3] = molecular target: CD19 CAR containing FMC63 scFv, on the cell surface (CD19 CAR-T cells, CD19 CAR-293T cells); experiment: flow cytometry, CAR positive cells diluted 1:128 in negative cells; AF488-CD19sIg1-4 against SSC-A; data reproduced from De Oliveira SN, et al., J Transl Med, 2013
[4] = molecular target: CD19 CAR containing FMC63 scFv, on the cell surface (CD19 CAR-T cells, CD19 CAR-293T cells); experiment: flow cytometry, CAR positive cells diluted 1:64 in negative cells; AF488-CD19sIg1-4 against SSC-A; data reproduced from De Oliveira SN, et al., J Transl Med, 2013
[5] = molecular target: CD19 CAR containing FMC63 scFv, on the cell surface (CD19 CAR-T cells, CD19 CAR-293T cells); experiment: flow cytometry, CAR positive cells unmixed; AF488-CD19sIg1-4 against SSC-A; data reproduced from De Oliveira SN, et al., J Transl Med, 2013
[6] = molecular target: CD19 CAR containing FMC63 scFv, on the cell surface (CD19 CAR-T cells, CD19 CAR-293T cells); experiment: flow cytometry, CAR positive cells diluted 1:32 in negative cells; AF488-CD19sIg1-4 against SSC-A; data reproduced from De Oliveira SN, et al., J Transl Med, 2013

Chain of CD19 CAR containing FMC63 scFv, on the cell surface (CD19 CAR-T cells, CD19 CAR-293T cells) (chain, as listed by the source): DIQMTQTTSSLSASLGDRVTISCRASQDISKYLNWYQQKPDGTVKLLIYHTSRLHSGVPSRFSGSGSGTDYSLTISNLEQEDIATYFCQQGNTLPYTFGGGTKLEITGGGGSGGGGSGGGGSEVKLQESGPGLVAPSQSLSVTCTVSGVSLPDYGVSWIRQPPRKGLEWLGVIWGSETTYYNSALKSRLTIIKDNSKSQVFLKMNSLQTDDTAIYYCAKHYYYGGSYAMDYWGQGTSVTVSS

## CD19/Fc (Fc fusion)
[1]
  % of cells in the AF488-CD19sIg1-4 positive gate, 1:16: 4.28%
[2]
  % of cells in the AF488-CD19sIg1-4 positive gate, 1:8: 9.24%
[3]
  % of cells in the AF488-CD19sIg1-4 positive gate, 1:128: 0.646%
[4]
  % of cells in the AF488-CD19sIg1-4 positive gate, 1:64: 1.34%
[5]
  % of cells in the AF488-CD19sIg1-4 positive gate, CAR positive cell (unmixed): 65.9%
[6]
  % of cells in the AF488-CD19sIg1-4 positive gate, 1:32: 2.96%
